From the supplement of paper PMC9233669
This sample holds only a part of the variants without activity.

Experiments:
biotinyl-Trp-oxazolone = experiment: self-aminoacylation, catalytic enhancement (BWO) (fold over background); higher = more active; k-Seq, kA / k0A0; sequences stand for … in GGGAAUGGAUCCACAUCUACGAAUUC…UUCACUGCAGACUUGACGAAGCUG
How it was run: (§1)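 Mutagenized RNA pools (0.43 μM; 21-nt variable region) were treated with 2–1250 μM of each biotinyl-aminoacyl-oxazolone. Conditions were 50 μL HEPES/NaCl/KCl/MgCl2/CaCl2 buffer, 5% acetonitrile, pH 6.9–7.0, room temperature, 90 minutes. Catalytic enhancement, the median kA relative to the uncatalyzed rate, was derived from streptavidin capture, qPCR and Illumina sequencing.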

biotinyl-Phe-oxazolone = experiment: self-aminoacylation, catalytic enhancement (BFO) (fold over background); higher = more active; k-Seq, kA / k0A0; sequences stand for … in GGGAAUGGAUCCACAUCUACGAAUUC…UUCACUGCAGACUUGACGAAGCUG
How it was run: as §1

biotinyl-Met-oxazolone = experiment: self-aminoacylation, catalytic enhancement (BMO) (fold over background); higher = more active; k-Seq, kA / k0A0; sequences stand for … in GGGAAUGGAUCCACAUCUACGAAUUC…UUCACUGCAGACUUGACGAAGCUG
How it was run: as §1

biotinyl-Val-oxazolone = experiment: self-aminoacylation, catalytic enhancement (BVO) (fold over background); higher = more active; k-Seq, kA / k0A0; sequences stand for … in GGGAAUGGAUCCACAUCUACGAAUUC…UUCACUGCAGACUUGACGAAGCUG
How it was run: as §1

biotinyl-Leu-oxazolone = experiment: self-aminoacylation, catalytic enhancement (BLO) (fold over background); higher = more active; k-Seq, kA / k0A0; sequences stand for … in GGGAAUGGAUCCACAUCUACGAAUUC…UUCACUGCAGACUUGACGAAGCUG
How it was run: as §1

biotinyl-Ile-oxazolone = experiment: self-aminoacylation, catalytic enhancement (BIO) (fold over background); higher = more active; k-Seq, kA / k0A0; sequences stand for … in GGGAAUGGAUCCACAUCUACGAAUUC…UUCACUGCAGACUUGACGAAGCUG
How it was run: as §1

| Sequence | self-aminoacylation (biotinyl-Trp-oxazolone) | self-aminoacylation (biotinyl-Phe-oxazolone) | self-aminoacylation (biotinyl-Met-oxazolone) | self-aminoacylation (biotinyl-Val-oxazolone) | self-aminoacylation (biotinyl-Leu-oxazolone) | self-aminoacylation (biotinyl-Ile-oxazolone) |
| --- | --- | --- | --- | --- | --- | --- |
| AUUACCCUGUUCAUCGAGCGA [Fam2.1 aminoacylation ribozyme variant] | 1.08 | 1.13 | 1.35 | 1.33 | 1.36 | 1.2 |
| AUUACCCUGUUCAUCGAGUGG [Fam2.1 aminoacylation ribozyme variant] | 1.48 | 0.962 | 1.03 | 1.29 | 1.25 | 1.08 |
| AUUACCCUGUUCAUCUAGUGA [Fam2.1 aminoacylation ribozyme variant] | 17.3 | 86.2 | 16.4 | 7.03 | 14.8 | 6.08 |
| AUUACCCUGUUCCUCGAGUGA [Fam2.1 aminoacylation ribozyme variant] | 4.81 | 11.2 | 3.86 | 2.68 | 3.54 | 2.27 |
| AUUACCCUGUUUAUCGAGUGA [Fam2.1 aminoacylation ribozyme variant] | 15.7 | 62.5 | 12.6 | 6.02 | 12.3 | 5.5 |
| AUUACCCUUGUAAUCGAGUGA [Fam2.1 aminoacylation ribozyme variant] | 21.1 | 127 | 16.4 | 6.66 | 16.3 | 6.93 |
| AUUACCCUUGUCAGCGAGUGA [Fam2.1 aminoacylation ribozyme variant] | 6.54 | 28.6 | 5.08 | 3.3 | 6.14 | 2.94 |
| AUUACCCUUGUCAUCGAGGGA [Fam2.1 aminoacylation ribozyme variant] | 1.3 | 2.14 | 1.28 | 0.957 | 1.27 | 1.16 |
| AUUACCCUUGUCAUCGAGUGA [Fam2.1 aminoacylation ribozyme variant] | 7.65 | 21.8 | 5.94 | 3.54 | 5.88 | 3.19 |
| AUUACCCUUGUCAUCGGGUGA [Fam2.1 aminoacylation ribozyme variant] | 9.41 | 45.3 | 8.35 | 4.39 | 9.03 | 4.14 |
| AUUACCCUUGUCAUGGAGUGA [Fam2.1 aminoacylation ribozyme variant] | 5.67 | 22.1 | 4.62 | 2.76 | 5.03 | 2.87 |
| AUUACCCUUGUCCUCGAGUGA [Fam2.1 aminoacylation ribozyme variant] | 5.17 | 32.2 | 4.9 | 3.08 | 4.77 | 2.68 |
| AUUACCCUUGUCGUCGAGUGA [Fam2.1 aminoacylation ribozyme variant] | 0.966 | 2.62 | 1.06 | 1.11 | 1.05 | 1.13 |
| AUUACCCUUGUCUUCGAGUGA [Fam2.1 aminoacylation ribozyme variant] | 6.14 | 18.9 | 4.46 | 2.73 | 4.49 | 2.64 |
| AUUACCCUUGUGAUCGAGUGA [Fam2.1 aminoacylation ribozyme variant] | 9.16 | 50.1 | 7.15 | 3.53 | 7.77 | 3.2 |
| AUUACCCUUUUCAUCGAGUGA [Fam2.1 aminoacylation ribozyme variant] | 7.27 | 25.2 | 6.39 | 3.68 | 6.32 | 2.88 |
| AUUACCGUGGUCAGCGAGUGA [Fam2.1 aminoacylation ribozyme variant] | 6.24 | 19.3 | 4.54 | 3.1 | 4.64 | 3.02 |
| AUUACCGUGGUCGUCGAGUGA [Fam2.1 aminoacylation ribozyme variant] | 0.591 | 2.81 | 1.09 | 1.06 | 1.18 | 1.2 |
| AUUACCGUGUUCAUCGAGUGA [Fam2.1 aminoacylation ribozyme variant] | 8.08 | 20.2 | 6.78 | 3.92 | 6.23 | 3.72 |
| AUUACCUAGGUCAUCGAGUGA [Fam2.1 aminoacylation ribozyme variant] | 7.91 | 6.96 | 6.35 | 4.01 | 7.92 | 4.2 |
| AUUACCUCGGUCAUCGAGUGA [Fam2.1 aminoacylation ribozyme variant] | 6.06 | 20.8 | 5.12 | 2.87 | 5.32 | 2.82 |
| AUUACCUGGGUCAUCGAGUGA [Fam2.1 aminoacylation ribozyme variant] | 5.91 | 5.6 | 5.07 | 3.05 | 4.74 | 2.83 |
| AUUACCUUGGCCAUCGAGUGA [Fam2.1 aminoacylation ribozyme variant] | 3.26 | 2.01 | 2.38 | 1.62 | 2.5 | 1.95 |
| AUUACCUUGGUCAUCCAGUGA [Fam2.1 aminoacylation ribozyme variant] | 5.48 | 22.5 | 4.51 | 2.84 | 4.83 | 3.16 |
| AUUACCUUGGUCAUCGAAUGA [Fam2.1 aminoacylation ribozyme variant] | 0.837 | 0.902 | 0.77 | 0.945 | 1.1 | 1.14 |
| AUUACCUUGGUCAUCGAGCGA [Fam2.1 aminoacylation ribozyme variant] | 1.57 | 1.02 | 1.5 | 1.83 | 1.74 | 1.55 |

| Sequence | self-aminoacylation (biotinyl-Trp-oxazolone) | self-aminoacylation (biotinyl-Phe-oxazolone) | self-aminoacylation (biotinyl-Met-oxazolone) | self-aminoacylation (biotinyl-Val-oxazolone) | self-aminoacylation (biotinyl-Leu-oxazolone) | self-aminoacylation (biotinyl-Ile-oxazolone) |
| --- | --- | --- | --- | --- | --- | --- |
| AUUACCUUGGUCAUCUAGUGA [Fam2.1 aminoacylation ribozyme variant] | 11.2 | 47.8 | 9.34 | 4.72 | 8.77 | 4.49 |
| AUUACCUUGGUCAUGGAGUGA [Fam2.1 aminoacylation ribozyme variant] | 5.57 | 4.26 | 4.16 | 2.72 | 4.42 | 2.97 |
| AUUACCUUUGUCAUCGAGUGA [Fam2.1 aminoacylation ribozyme variant] | 6.87 | 20 | 5.22 | 3.06 | 6.05 | 3.25 |
| AUUACGCCGGUCAUCGAGUGA [Fam2.1 aminoacylation ribozyme variant] | 8.28 | 81.9 | 7.36 | 4.89 | 7.93 | 3.94 |
| AUUACGCUGGGCAUCGAGUGA [Fam2.1 aminoacylation ribozyme variant] | 6.96 | 43.1 | 7.19 | 4 | 7.76 | 3.69 |
| AUUACGCUGGUCACCGAGUGA [Fam2.1 aminoacylation ribozyme variant] | 7.92 | 47.5 | 6.73 | 4.31 | 7.46 | 3.71 |
| AUUACGCUGGUCAUCGAGUGU [Fam2.1 aminoacylation ribozyme variant] | 3.22 | 2.57 | 2.96 | 2.64 | 2.9 | 2.34 |
| AUUACGCUGGUCAUCGCGUGA [Fam2.1 aminoacylation ribozyme variant] | 15.4 | 134 | 12.2 | 9.87 | 11.7 | 7.32 |
| AUUACGCUGGUCAUCUAGUGA [Fam2.1 aminoacylation ribozyme variant] | 6.02 | 27.3 | 4.83 | 2.89 | 5.42 | 3.21 |
| AUUACUCAGGUCAUCGAGUGA [Fam2.1 aminoacylation ribozyme variant] | 4.11 | 13.2 | 3.58 | 2.57 | 3.72 | 2.41 |
| AUUACUCUGAUCAUCGAGUGA [Fam2.1 aminoacylation ribozyme variant] | 6.7 | 19.3 | 5.85 | 2.95 | 5.35 | 2.93 |
| AUUACUCUGGGCAUCGAGUGA [Fam2.1 aminoacylation ribozyme variant] | 7.68 | 41.2 | 6.39 | 3.11 | 6.57 | 3.71 |
| AUUACUCUGGUAAUCGAGUGA [Fam2.1 aminoacylation ribozyme variant] | 9.06 | 45.5 | 7.65 | 3.46 | 8.85 | 3.66 |
| AUUACUCUGGUCAUAGAGUGA [Fam2.1 aminoacylation ribozyme variant] | 6.05 | 20.8 | 4.99 | 2.79 | 5.04 | 3.03 |
| AUUACUCUGGUCAUCGAGAGA [Fam2.1 aminoacylation ribozyme variant] | 0.523 | 1.03 | 0.867 | 0.908 | 0.713 | 0.907 |
| AUUACUCUGGUCAUCGAGUCA [Fam2.1 aminoacylation ribozyme variant] | 0.628 | 1.04 | 0.944 | 0.978 | 0.928 | 1.09 |
| AUUACUUUGGUCAUCGAGUGA [Fam2.1 aminoacylation ribozyme variant] | 8.06 | 25.8 | 6.07 | 3.57 | 7.1 | 3.55 |
| AUUAGCCGGGUCAUCGAGUGA [Fam2.1 aminoacylation ribozyme variant] | 7.69 | 40.5 | 6.22 | 4.51 | 6.37 | 3.91 |
| AUUAGCCUGGCCAUCGAGUGA [Fam2.1 aminoacylation ribozyme variant] | 6.06 | 26.4 | 5.44 | 3.54 | 4.51 | 3.83 |
| AUUAGCCUGGUCAGCGAGUGA [Fam2.1 aminoacylation ribozyme variant] | 4.85 | 9.96 | 3.65 | 3.39 | 5.47 | 3.09 |
| AUUAGCCUGGUCAUCGAGUAA [Fam2.1 aminoacylation ribozyme variant] | 0.949 | 1.85 | 1.31 | 1.51 | 1.57 | 1.52 |
| AUUAGCCUGGUCAUCGAGUUA [Fam2.1 aminoacylation ribozyme variant] | 0.867 | 1.15 | 1.41 | 1.24 | 1.27 | 1.36 |
| AUUAGCCUGGUCAUUGAGUGA [Fam2.1 aminoacylation ribozyme variant] | 12.3 | 62.6 | 9.25 | 5.01 | 10.3 | 4.89 |
| AUUAGCCUGGUCUUCGAGUGA [Fam2.1 aminoacylation ribozyme variant] | 6.87 | 35.9 | 5.53 | 3.28 | 5.63 | 3.5 |
| AUUAGCCUGGUUAUCGAGUGA [Fam2.1 aminoacylation ribozyme variant] | 13.7 | 74.4 | 11.3 | 5.37 | 12.2 | 5.67 |
